Columns and labels:
Mouse B7-H3 on cells = molecular target: T1, Mouse B7-H3 on cells (mouse, UniProt Q8VE98 29-316); experiment: FACS, 3T12 transfectants
T1 construct: whole, on cells
T1 sequence (looked up): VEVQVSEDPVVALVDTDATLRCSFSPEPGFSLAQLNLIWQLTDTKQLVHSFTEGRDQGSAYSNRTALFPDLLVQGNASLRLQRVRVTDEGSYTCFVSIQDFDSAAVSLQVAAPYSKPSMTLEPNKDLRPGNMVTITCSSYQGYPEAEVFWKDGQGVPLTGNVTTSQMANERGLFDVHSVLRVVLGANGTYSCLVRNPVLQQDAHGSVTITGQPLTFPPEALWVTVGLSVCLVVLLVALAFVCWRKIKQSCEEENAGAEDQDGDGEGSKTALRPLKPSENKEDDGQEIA
Protocol: (§1) A selection of hits were subcloned using the MoFlo (Beckman, Indianapolis, Ind., US) by depositing a single cell per well into 96 well cell culture plates to ensure clonality of the cell line. Resulting colonies were screened for specificity by FACS using mouse 3T12 fibroblast cell lines expressing the human B7-H3, cynomolgous B7-H3 or mouse B7-H3. Isotype of each monoclonal antibody was determined using the Mouse Monoclonal Isostyping Kit (Roche, No. 11-493-027-001, Indianapolis, Ind., USA).

[1] = molecular target: T2, Cynomolgous B7-H3 on cells (cynomolgus); experiment: FACS, 3T12 transfectants
T2 construct: whole, on cells; also called cyB7-H3; cyno B7-H3
Protocol: as §1

Human full length B7-H3 = molecular target: T3, Human full length B7-H3 (human, UniProt Q5ZPR3 29-534); experiment: FACS, 3T12 transfectants
T3 construct: On 3T12 fibroblasts expressing full length human B7-H3 or on NCI-H1650 cells; signal peptide residues 1-28 stated; also called huB7-H3; CD276
T3 sequence: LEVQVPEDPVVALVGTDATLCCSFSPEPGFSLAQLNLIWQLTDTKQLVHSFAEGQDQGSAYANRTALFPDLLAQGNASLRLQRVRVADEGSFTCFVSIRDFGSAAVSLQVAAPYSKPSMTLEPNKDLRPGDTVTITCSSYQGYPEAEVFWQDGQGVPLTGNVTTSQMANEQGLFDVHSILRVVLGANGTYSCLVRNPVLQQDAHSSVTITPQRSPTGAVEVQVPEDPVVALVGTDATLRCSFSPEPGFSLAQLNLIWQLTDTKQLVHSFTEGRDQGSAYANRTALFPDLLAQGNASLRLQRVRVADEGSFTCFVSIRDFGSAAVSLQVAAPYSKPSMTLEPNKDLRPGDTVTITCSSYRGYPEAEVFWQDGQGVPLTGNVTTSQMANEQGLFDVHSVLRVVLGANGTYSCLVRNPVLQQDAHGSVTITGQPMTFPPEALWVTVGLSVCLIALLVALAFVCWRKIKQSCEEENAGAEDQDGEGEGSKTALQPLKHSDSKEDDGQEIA
Protocol: as §1

Cyno B7-H3-ECD (his tag) = molecular target: T4, Cyno B7-H3-ECD (his tag) (cynomolgus); experiment: SPR, mAb captured, ECD analyte
T4 construct: SPR analyte; also called soluble ECD of cyno B7-H3
T4 chain: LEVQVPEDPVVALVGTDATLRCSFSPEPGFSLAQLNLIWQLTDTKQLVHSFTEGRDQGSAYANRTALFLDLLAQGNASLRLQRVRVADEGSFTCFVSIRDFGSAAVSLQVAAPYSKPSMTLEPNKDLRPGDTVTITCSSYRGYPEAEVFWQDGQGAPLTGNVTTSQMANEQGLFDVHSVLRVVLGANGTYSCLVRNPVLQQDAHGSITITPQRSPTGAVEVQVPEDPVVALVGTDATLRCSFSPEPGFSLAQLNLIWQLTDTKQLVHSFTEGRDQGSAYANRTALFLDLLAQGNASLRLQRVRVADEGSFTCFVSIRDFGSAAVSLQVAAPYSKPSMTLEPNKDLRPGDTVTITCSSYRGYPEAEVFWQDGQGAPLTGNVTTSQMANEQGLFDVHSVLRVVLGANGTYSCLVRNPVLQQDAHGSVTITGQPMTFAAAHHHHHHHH

[2] = molecular target: T5, Human B7-H3-ECD (His tag) (human, UniProt Q5ZPR3 29-461); experiment: SPR, mAb captured, ECD analyte
T5 construct: SPR analyte; also called huB7-H3; soluble ECD of human B7-H3
T5 sequence: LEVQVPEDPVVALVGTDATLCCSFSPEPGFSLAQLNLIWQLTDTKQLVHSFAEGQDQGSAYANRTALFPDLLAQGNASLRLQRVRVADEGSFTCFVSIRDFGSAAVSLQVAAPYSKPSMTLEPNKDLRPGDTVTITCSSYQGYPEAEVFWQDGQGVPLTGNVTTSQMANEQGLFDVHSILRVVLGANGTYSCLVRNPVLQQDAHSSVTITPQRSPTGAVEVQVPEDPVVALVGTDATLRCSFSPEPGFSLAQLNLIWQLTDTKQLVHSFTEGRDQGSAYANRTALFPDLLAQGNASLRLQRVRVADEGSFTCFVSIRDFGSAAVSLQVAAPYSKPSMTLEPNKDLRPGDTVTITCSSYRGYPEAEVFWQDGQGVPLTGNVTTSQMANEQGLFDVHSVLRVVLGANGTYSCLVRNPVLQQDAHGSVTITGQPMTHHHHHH

B1: Ab3 (antibody, mouse IgG1, V domains shown)
VH: QVQLQQPGAELVKPGASVKLSCKASGYTFSSYWMHWVKQRPGQGLEWIGLIHPDSGSTNYNEMFKNKATLTVDRSSSTAYVQLSSLTSEDSAVYFCAGGGRLYFDYWGQGTTLTVSS
VL: DVVMTQTPLSLPVSLGDQASISCRSSQSLVHSNGDTYLRWYLQKPGQSPKLLIYKVSNRFSGVPDRFSGSGSGTDFTLKITRVEAEDLGVYFCSQSTHVPYTFGGGTKLEIK
notes: mouse IgG1/k
Question: For B1, which EC50 (Mouse B7-H3 on cells) is on record?
Answer: 0.94 nM

Question: And the EC50 [1]?
Answer: 1.42 nM

Question: And the EC50 (Human full length B7-H3)?
Answer: 1.66 nM

Question: And the Kd (Cyno B7-H3-ECD (his tag))?
Answer: 26 nM

Question: What about the koff (Cyno B7-H3-ECD (his tag)) of the same binder?
Answer: 0.01 s⁻¹

Question: And the kon (Cyno B7-H3-ECD (his tag))?
Answer: 380000 M⁻¹ s⁻¹

Question: What about the Kd [2] of the same binder?
Answer: 19 nM

Question: And the koff [2]?
Answer: 0.01 s⁻¹

Question: What about the kon [2] of the same binder?
Answer: 520000 M⁻¹ s⁻¹

B2: Ab2 (antibody, mouse IgG1, V domains shown)
VH: QVQLQQPGAELVKPGASVKLSCKASGYTFTSYWMHWVKQRPGQGLEWIGMIHPDSGTTNYNEKFRSKATLTVDKSSSTAYMQLSSLTSEDSAVYYCAVYYGSTYWYFDVWGTGTTVTVSS
VL: DVVMTQTPLSLPVSLGDQAYISCRSSQSLVHINGNTYLHWYRQKPGQSPKLLIYKVSNRFSGVPDRFSGSGSGTDFTLKISRVEAEDLGVYFCSQSTHFPFTFGSGTKLEIK
notes: mouse IgG1/k
Question: With B2 as the binder, how does the EC50 (Mouse B7-H3 on cells) read?
Answer: 1 nM

Question: And the EC50 [1]?
Answer: 1.5 nM

Question: What about the EC50 (Human full length B7-H3) of the same binder?
Answer: 1.7 nM

Question: And the Kd (Cyno B7-H3-ECD (his tag))?
Answer: 50 nM

Question: And the koff (Cyno B7-H3-ECD (his tag))?
Answer: 0.011 s⁻¹

Question: And the kon (Cyno B7-H3-ECD (his tag))?
Answer: 230000 M⁻¹ s⁻¹

Question: What about the Kd [2] of the same binder?
Answer: 24 nM

Question: And the koff [2]?
Answer: 0.0029 s⁻¹

Question: And the kon [2]?
Answer: 120000 M⁻¹ s⁻¹

B3: Ab11 (antibody, mouse IgG1, V domains shown)
VH: EVKLVESGGGLVQPGGSLRLSCATSGFTFTNYYMSWVRQPPGKALEWLGFIRNKANDYTTEYSASVKGRFTISRDNSQSILYLQMNTLRAEDSATYYCARESPGNPFAYWGQGTLVTVSA
VL: DIVMTQSPSSLTVTAGEKVTMTCKSSQSLLNSGTQKNFLTWYQQKPGQPPKLLIYWASTRESGVPDRFTGSGSGTDFTLTISSVQAEDLAVYFCQNDYIYPLTFGAGTKLELK
notes: mouse IgG1/k
Question: What does the source list for B3?
Answer: EC50 (Mouse B7-H3 on cells): 569 nM; EC50 [1]: 2.03 nM; EC50 (Human full length B7-H3): 23.4 nM; Kd (Cyno B7-H3-ECD (his tag)): 2.6 nM; koff (Cyno B7-H3-ECD (his tag)): 7.2e-05 s⁻¹; kon (Cyno B7-H3-ECD (his tag)): 27000 M⁻¹ s⁻¹; Kd [2]: 45 nM; koff [2]: 0.00089 s⁻¹; kon [2]: 20000 M⁻¹ s⁻¹

B4: Ab16 (antibody, mouse IgG1, V domains shown)
VH: EVKLLESGGGLVQPGGSLKLSCAASGFDFSRYWMSWVRQAPGKGLEWIGEINPDSSTINYTPSLKDKFIISRDNAKNTLYLQMSKVRSEDTALYYCARPGFGNYIYAMDYWGQGTSVTVSS
VL: DIQMTQTTSSLSASLGDRVTINCRASQDISNFLNWYQQKPDGTVKLLIYYTSRLYLGVPSRFSGSGSGTDYSLTISNLEQEDIATYFCQQGNTLPPTFGGGTKLEIK
notes: mouse IgG1/k
Question: What does the source list for B4?
Answer: EC50 (Mouse B7-H3 on cells): 319 nM; EC50 [1]: 4.28 nM; EC50 (Human full length B7-H3): 3.94 nM; Kd (Cyno B7-H3-ECD (his tag)): 7.5 nM; koff (Cyno B7-H3-ECD (his tag)): 0.0056 s⁻¹; kon (Cyno B7-H3-ECD (his tag)): 750000 M⁻¹ s⁻¹; Kd [2]: 24 nM; koff [2]: 0.0032 s⁻¹; kon [2]: 140000 M⁻¹ s⁻¹

B5: Ab6 (antibody, mouse IgG1, V domains shown)
VH: QVQLQQSGAELMKPGASVKISCKATGYTFSRYWIEWVKQRPGHGLEWIGEILPGSGSTNYNEKFKGKATFTADTSSNTAYMQVSSLTSEDSAVHYCARRGYGYVPYALDYWGQGTSVTVSS
VL: EIQMTQTTSSLSASLGDRVTISCRASQDISNSLNWYQQKPDGTVNLLIYYTSRLYSGVPSRFSGSGSGTDYSLTISNLEQEDIATYFCQQGNTLPYTFGGGTKLEIK
notes: mouse IgG1/k
Question: Which results are given for B5?
Answer: binding result (Mouse B7-H3 on cells): no binding; EC50 [1]: 1.53 nM; EC50 (Human full length B7-H3): 1.59 nM; Kd (Cyno B7-H3-ECD (his tag)): 410 nM; koff (Cyno B7-H3-ECD (his tag)): 0.012 s⁻¹; kon (Cyno B7-H3-ECD (his tag)): 28000 M⁻¹ s⁻¹; Kd [2]: 840 nM; koff [2]: 0.01 s⁻¹; kon [2]: 12000 M⁻¹ s⁻¹

B6: Ab17 (antibody, mouse IgG2b, V domains shown)
VH: EVKLVESGGGLVQPGGSLKLSCAASGFTFSSYIMSWVRQTPEKRLEWVASIVSSNITYYPDSMKGRFTISRDNARNILYLQMSSLKSEDTAMYYCARSGTRAWFAYWGQGTLVTVSA
VL: DIVLTQSPASLAVSLGQRATISCRASKSVSTSAYSYMHWYQQKPGQPPKLLIYLASNLESGVPARFSGSGSGTDFTLNIHPVEEEDAATYYCQHSRELPYTFGGGTKLEIK
notes: mouse IgG2b/k
Question: How did the EC50 (Mouse B7-H3 on cells) turn out when B6 was run?
Answer: 2.39 nM

Question: What about the EC50 [1] of the same binder?
Answer: 2.6 nM

Question: And the EC50 (Human full length B7-H3)?
Answer: 2.75 nM

Question: What about the Kd (Cyno B7-H3-ECD (his tag)) of the same binder?
Answer: ≤ 0.019 nM

Question: What about the koff (Cyno B7-H3-ECD (his tag)) of the same binder?
Answer: ≤ 1e-05 s⁻¹

Question: What about the kon (Cyno B7-H3-ECD (his tag)) of the same binder?
Answer: 510000 M⁻¹ s⁻¹

Question: What about the Kd [2] of the same binder?
Answer: 0.034 nM

Question: What about the koff [2] of the same binder?
Answer: 1.9e-05 s⁻¹

Question: And the kon [2]?
Answer: 540000 M⁻¹ s⁻¹

Source: patent US20170355769A1 (AbbVie / Abbott, published 2017)
